Tested on: Escherichia coli TOP10
Assay: shrunken log2 fold change of peptide-encoding DNA abundance (4.5 h post-induction vs induction); higher = less antimicrobial activity (less host growth inhibition)
Settings: time post-induction: 4.5 h; library: site-saturation at positions 5, 18, 19, 20
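Further: peptides expressed intracellularly from a pBAD plasmid library in pooled LB shake-flask culture, induced with 0.3% L-arabinose, DNA abundance read by NGS, three biological replicates, DESeq2 with apeglm shrinkage.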

Going from RRIRFRPPRLPRPRPRPSYHPRP to RRIRFRPPRLPRPRPRPTAVPRP, the “shrunken log2 fold change” value rises from -0.485 to 0.117.

RRIRFRPPRLPRPRPRPTDAPRP and RRIRFRPPRLPRPRPRPTFFPRP are within 0.2 log units of each other in “shrunken log2 fold change” value: 0.00734 for the first, -0.169 for the second.

Going from RRIRFRPPRLPRPRPRPTGHPRP to RRIRFRPPRLPRPRPRPTGQPRP, the “shrunken log2 fold change” value rises from -0.287 to 0.0488.

RRIRFRPPRLPRPRPRPTGSPRP and RRIRFRPPRLPRPRPRPTHKPRP are within 0.2 log units of each other in “shrunken log2 fold change” value: -0.103 for the first, -0.0458 for the second.

Compared with RRIRFRPPRLPRPRPRPTHLPRP, RRIRFRPPRLPRPRPRPTHWPRP is higher in “shrunken log2 fold change” value: 0.222 for the first, 0.44 for the second.

RRIRFRPPRLPRPRPRPTIFPRP and RRIRFRPPRLPRPRPRPTILPRP are within 0.2 log units of each other in “shrunken log2 fold change” value: -0.274 for the first, -0.453 for the second.

Compared with RRIRFRPPRLPRPRPRPTIPPRP, RRIRFRPPRLPRPRPRPTIQPRP is higher in “shrunken log2 fold change” value: -0.562 for the first, -0.266 for the second.

First: RRIRFRPPRLPRPRPRPTISPRP
Second: RRIRFRPPRLPRPRPRPTKAPRP
The “shrunken log2 fold change” value of the first is lower: -0.611 for the first, 0.0916 for the second.

RRIRFRPPRLPRPRPRPTKEPRP and RRIRFRPPRLPRPRPRPTNAPRP are within 0.2 log units of each other in “shrunken log2 fold change” value: -0.0335 for the first, -0.143 for the second.

Compared with RRIRFRPPRLPRPRPRPTNYPRP, RRIRFRPPRLPRPRPRPTPDPRP is higher in “shrunken log2 fold change” value: -0.587 for the first, 0.485 for the second.

RRIRFRPPRLPRPRPRPTPFPRP and RRIRFRPPRLPRPRPRPTPHPRP are within 0.2 log units of each other in “shrunken log2 fold change” value: 0.266 for the first, 0.333 for the second.

Going from RRIRFRPPRLPRPRPRPTPSPRP to RRIRFRPPRLPRPRPRPTPYPRP, the “shrunken log2 fold change” value falls from 0.636 to 0.0647.

RRIRFRPPRLPRPRPRPTQAPRP and RRIRFRPPRLPRPRPRPTQWPRP are within 0.2 log units of each other in “shrunken log2 fold change” value: 0.442 for the first, 0.267 for the second.

RRIRFRPPRLPRPRPRPTVLPRP and RRIRFRPPRLPRPRPRPTVTPRP are within 0.2 log units of each other in “shrunken log2 fold change” value: -0.0624 for the first, 0.052 for the second.

RRIRFRPPRLPRPRPRPTWAPRP and RRIRFRPPRLPRPRPRPTWVPRP are within 0.2 log units of each other in “shrunken log2 fold change” value: 0.0327 for the first, 0.156 for the second.

Compared with RRIRFRPPRLPRPRPRPTYFPRP, RRIRFRPPRLPRPRPRPTYNPRP is lower in “shrunken log2 fold change” value: -0.175 for the first, -0.767 for the second.

Going from RRIRFRPPRLPRPRPRPVAAPRP to RRIRFRPPRLPRPRPRPVAPPRP, the “shrunken log2 fold change” value falls from 1.41 to 0.243.

Compared with RRIRFRPPRLPRPRPRPVARPRP, RRIRFRPPRLPRPRPRPVCPPRP is higher in “shrunken log2 fold change” value: 0.0942 for the first, 0.311 for the second.

Going from RRIRFRPPRLPRPRPRPVCVPRP to RRIRFRPPRLPRPRPRPVCWPRP, the “shrunken log2 fold change” value rises from -0.168 to 0.399.

RRIRFRPPRLPRPRPRPVDCPRP and RRIRFRPPRLPRPRPRPVDSPRP are within 0.2 log units of each other in “shrunken log2 fold change” value: -0.0595 for the first, 0.0218 for the second.

First: RRIRFRPPRLPRPRPRPVEIPRP
Second: RRIRFRPPRLPRPRPRPVFGPRP
The “shrunken log2 fold change” value of the first is lower: -0.391 for the first, -0.17 for the second.

RRIRFRPPRLPRPRPRPVHVPRP and RRIRFRPPRLPRPRPRPVIAPRP are within 0.2 log units of each other in “shrunken log2 fold change” value: -0.191 for the first, -0.186 for the second.

Going from RRIRFRPPRLPRPRPRPVIMPRP to RRIRFRPPRLPRPRPRPVPGPRP, the “shrunken log2 fold change” value rises from -0.297 to 0.1.

Going from RRIRFRPPRLPRPRPRPVPTPRP to RRIRFRPPRLPRPRPRPVQYPRP, the “shrunken log2 fold change” value falls from 0.113 to -0.445.

Compared with RRIRFRPPRLPRPRPRPVRAPRP, RRIRFRPPRLPRPRPRPVRLPRP is lower in “shrunken log2 fold change” value: 0.495 for the first, 0.0919 for the second.

RRIRFRPPRLPRPRPRPVRYPRP and RRIRFRPPRLPRPRPRPVSRPRP are within 0.2 log units of each other in “shrunken log2 fold change” value: -0.0423 for the first, -0.145 for the second.

Compared with RRIRFRPPRLPRPRPRPVWHPRP, RRIRFRPPRLPRPRPRPVYDPRP is lower in “shrunken log2 fold change” value: -0.0142 for the first, -0.977 for the second.

Going from RRIRFRPPRLPRPRPRPWAIPRP to RRIRFRPPRLPRPRPRPWCDPRP, the “shrunken log2 fold change” value falls from 0.268 to -0.329.

Going from RRIRFRPPRLPRPRPRPWCGPRP to RRIRFRPPRLPRPRPRPWCIPRP, the “shrunken log2 fold change” value falls from -0.142 to -0.369.

Going from RRIRFRPPRLPRPRPRPWDAPRP to RRIRFRPPRLPRPRPRPWDHPRP, the “shrunken log2 fold change” value falls from -0.12 to -0.483.

First: RRIRFRPPRLPRPRPRPWDKPRP
Second: RRIRFRPPRLPRPRPRPWFEPRP
The “shrunken log2 fold change” value of the first is lower: -1.33 for the first, -0.0653 for the second.

Going from RRIRFRPPRLPRPRPRPWFKPRP to RRIRFRPPRLPRPRPRPWFPPRP, the “shrunken log2 fold change” value rises from -0.537 to -0.0773.

RRIRFRPPRLPRPRPRPWGEPRP and RRIRFRPPRLPRPRPRPWGMPRP are within 0.2 log units of each other in “shrunken log2 fold change” value: 0.0156 for the first, -0.171 for the second.

Compared with RRIRFRPPRLPRPRPRPWHVPRP, RRIRFRPPRLPRPRPRPWIPPRP is lower in “shrunken log2 fold change” value: -0.0433 for the first, -0.432 for the second.

Compared with RRIRFRPPRLPRPRPRPWIVPRP, RRIRFRPPRLPRPRPRPWKAPRP is higher in “shrunken log2 fold change” value: -0.242 for the first, 0.0062 for the second.

RRIRFRPPRLPRPRPRPWLQPRP and RRIRFRPPRLPRPRPRPWLTPRP are within 0.2 log units of each other in “shrunken log2 fold change” value: -0.163 for the first, -0.0554 for the second.

Going from RRIRFRPPRLPRPRPRPWNTPRP to RRIRFRPPRLPRPRPRPWQWPRP, the “shrunken log2 fold change” value rises from -1.19 to 0.00967.

For RRIRFRPPRLPRPRPRPWRCPRP, the “shrunken log2 fold change” value was 0.174.
